± gives the uncertainty stated by the source.
B1: Zinc finger MYM-type protein 6, residues 427 to 504; numbered along this chain, O95789 (parent)
chain: KLKCQHCNHLFATKPELLFYKGKMFLFCGKNCSDEYKKKNKVVAMCDYCKLQKIIKETVRFSGVDKPFCSEVCKFLSA

Variants of: B1
Experiment: abundance fitness (aPCA) (normalised: wild type 0, dead -1); higher = more abundant; growth selection in yeast, the domain comes from the species named
Details: Homo sapiens

Row | Variant | abundance fitness
1 | KGKCQHCNHLFATKPELLFYKGKMFLFCGKNCSDEYKKKNKVVAMCDYCKLQKIIKETVRFSGVDKPFCSEVCKFLSA [L2G] | 0.082 ± 0.028
2 | KFKCQHCNHLFATKPELLFYKGKMFLFCGKNCSDEYKKKNKVVAMCDYCKLQKIIKETVRFSGVDKPFCSEVCKFLSA [L2F] | 0.018 ± 0.14
3 | KTKCQHCNHLFATKPELLFYKGKMFLFCGKNCSDEYKKKNKVVAMCDYCKLQKIIKETVRFSGVDKPFCSEVCKFLSA [L2T] | 0.125 ± 0.042
4 | KLKCQHCNHTFATKPELLFYKGKMFLFCGKNCSDEYKKKNKVVAMCDYCKLQKIIKETVRFSGVDKPFCSEVCKFLSA [L10T] | -0.085 ± 0.055
5 | KLKCQHCNHFFATKPELLFYKGKMFLFCGKNCSDEYKKKNKVVAMCDYCKLQKIIKETVRFSGVDKPFCSEVCKFLSA [L10F] | 0.107 ± 0.14
6 | KLKCQHCNHLFATKPELLFYKGKMFLFCGKNCSDEYKKKNKVVAMCDYCKLQLIIKETVRFSGVDKPFCSEVCKFLSA [K53L] | -0.351 ± 0.099
7 | KLKCQHCNHLFATKPELLFYKGKMFLFCGKNCSDEYKKKNKVVAMCDYCKHQKIIKETVRFSGVDKPFCSEVCKFLSA [L51H] | 0.513 ± 0.17
8 | KLKCQHCNHLFATKPELLFYKGKMALFCGKNCSDEYKKKNKVVAMCDYCKLQKIIKETVRFSGVDKPFCSEVCKFLSA [F25A] | 0.033 ± 0.03
9 | KLKCQHCNHLFATKPELLFYKGKMFLFCGKNCSDEYKKKNKVVAMCDYCKLQKIIKETVYFSGVDKPFCSEVCKFLSA [R60Y] | -0.423 ± 0.38
10 | KLKCQHCNHLFATKPELLFYKGKMFLFCGKNCSDEYKKKNKVVWMCDYCKLQKIIKETVRFSGVDKPFCSEVCKFLSA [A44W] | -0.558 ± 0.28
11 | KLKCQHCNHLFATKPELLFYKGKMFLFCGKNCSDEYKKKNKVVAMCDYCKLQKIIGETVRFSGVDKPFCSEVCKFLSA [K56G] | -0.192 ± 0.078
12 | KLKCQHCNHLFATKPELLFYKGKMFQFCGKNCSDEYKKKNKVVAMCDYCKLQKIIKETVRFSGVDKPFCSEVCKFLSA [L26Q] | 0.166 ± 0.057
13 | KLKCQHCNHLFATKPELLFYKGKMFLFCGKNCSDEYKKKNKVVAMCDYCKLQKILKETVRFSGVDKPFCSEVCKFLSA [I55L] | -0.774 ± 0.25
14 | KLKCQHCNHLFATKPELLFYKGKMFLFCGKNCSDEYKKKNKVVAMCDYCKLQKITKETVRFSGVDKPFCSEVCKFLSA [I55T] | 0.161 ± 0.1
15 | KLKCQHCNHLFATKPELLFYKGKMFLFCGKNCSDEYKKKNKVVAMCDYCKLQKIIKETVRFSGVAKPFCSEVCKFLSA [D65A] | -0.226 ± 0.12
16 | KLKVQHCNHLFATKPELLFYKGKMFLFCGKNCSDEYKKKNKVVAMCDYCKLQKIIKETVRFSGVDKPFCSEVCKFLSA [C4V] | -0.758 ± 0.045
17 | KLKCQMCNHLFATKPELLFYKGKMFLFCGKNCSDEYKKKNKVVAMCDYCKLQKIIKETVRFSGVDKPFCSEVCKFLSA [H6M] | 0.033 ± 0.044
18 | KLKCQHCNHLFATKPELLFYKGNMFLFCGKNCSDEYKKKNKVVAMCDYCKLQKIIKETVRFSGVDKPFCSEVCKFLSA [K23N] | -0.001 ± 0.096

Row | Variant | abundance fitness
19 | KLKCQHCNHLFATKPELLFYKGHMFLFCGKNCSDEYKKKNKVVAMCDYCKLQKIIKETVRFSGVDKPFCSEVCKFLSA [K23H] | -0.048 ± 0.039
20 | KLKCQHCNHLFATKPELLFYKGKMFLFCGKNCSDEYKKKNKVVAMCDYCKLQKIIKETVRFSGMDKPFCSEVCKFLSA [V64M] | 0.606 ± 0.095
21 | KLPCQHCNHLFATKPELLFYKGKMFLFCGKNCSDEYKKKNKVVAMCDYCKLQKIIKETVRFSGVDKPFCSEVCKFLSA [K3P] | -0.071 ± 0.043
22 | KLWCQHCNHLFATKPELLFYKGKMFLFCGKNCSDEYKKKNKVVAMCDYCKLQKIIKETVRFSGVDKPFCSEVCKFLSA [K3W] | -0.243 ± 0.042
23 | KLNCQHCNHLFATKPELLFYKGKMFLFCGKNCSDEYKKKNKVVAMCDYCKLQKIIKETVRFSGVDKPFCSEVCKFLSA [K3N] | -0.011 ± 0.051
24 | KLKCQHCNHLFATKPELLFYKGKMFLFCGKYCSDEYKKKNKVVAMCDYCKLQKIIKETVRFSGVDKPFCSEVCKFLSA [N31Y] | -0.134 ± 0.24
25 | QLKCQHCNHLFATKPELLFYKGKMFLFCGKNCSDEYKKKNKVVAMCDYCKLQKIIKETVRFSGVDKPFCSEVCKFLSA [K1Q] | -0.194 ± 0.14
26 | GLKCQHCNHLFATKPELLFYKGKMFLFCGKNCSDEYKKKNKVVAMCDYCKLQKIIKETVRFSGVDKPFCSEVCKFLSA [K1G] | -0.229 ± 0.033
27 | KLKCQHCNHLFATKPELLFYKGKMFLFCGKNCSDEYKKKNKVVAMCDYCKLQKIIKETVRFSGVDKPFCSEVCKVLSA [F75V] | 0.256 ± 0.063
28 | KLKCQHCNHLFATKPELLFYKGKMFLFCGKNCSDEYKKKNKVVAMCDYCKLQKIIKETVRFSGVDKPFCSEVCKRLSA [F75R] | 0.499 ± 0.063
29 | KLKCQHCNHLFATKPELLFYKGKMFLFCGKNCSDEYKKKNKVVAMCDYCKLQKIIKETVRFSGVDKPFCMEVCKFLSA [S70M] | -0.482 ± 0.21
30 | KLKCQHCNHLFATKPELLFYKGKMFLFCGKNCSDEYKKKNKVVAMCDYCKLQKIIKETVRFSGVDKPFCPEVCKFLSA [S70P] | -0.563 ± 0.48
31 | KLKCQHCNHLFATKPELLFYKGKMFLFCGKNCSDEYKKKNKVVAMCVYCKLQKIIKETVRFSGVDKPFCSEVCKFLSA [D47V] | -0.58 ± 0.1
32 | KLKCQHCNHLFATKPELLFYKGKMFLFEGKNCSDEYKKKNKVVAMCDYCKLQKIIKETVRFSGVDKPFCSEVCKFLSA [C28E] | -0.671 ± 0.079
33 | KLKCQHCNHLFATKPELLFYKGKMFLFKGKNCSDEYKKKNKVVAMCDYCKLQKIIKETVRFSGVDKPFCSEVCKFLSA [C28K] | -0.731 ± 0.14
34 | KLKCQHCNSLFATKPELLFYKGKMFLFCGKNCSDEYKKKNKVVAMCDYCKLQKIIKETVRFSGVDKPFCSEVCKFLSA [H9S] | -0.032 ± 0.039
35 | KLKCQHCNHLFATKPELLFYKGKMFLFCGKNCSDRYKKKNKVVAMCDYCKLQKIIKETVRFSGVDKPFCSEVCKFLSA [E35R] | -0.021 ± 0.03

Source: the Human Domainome abundance scans (Beltran et al. 2025)
